# B1: Humanized Anti-PSMA Antibody Variant 1 ADC, MMAF payload, Short Cleavable (Valine-Citruline-Acetyl) linker (antibody, human IgG1, kappa, V domains shown)
# VH: QVQLVQSGAEVKKPGASVKVSCKASGYTFTEYTIHWVRQAPGQRLEWMGNINPNNGGTTYNQKFEDRVTITRDTSASTAYMELSSLRSEDTAVYYCAAGWNFDYWGQGTTLTVSS
# VL: DIQLTQSPSFLSASVGDRVTITCKASQDVGTAVDWYQQKPGKAPKLLIYWASTRHTGVPSRFSGSGSGTEFTLTISSLQPEDFATYYCQQYNSYPLTFGGGTKVEIKR
# modifications: para-acetyl phenylalanine (pAF) at position A114 (Kabat numbering; first residue of the heavy chain constant region), conjugated to short cleavable (Valine-Citruline-Acetyl) MMAF drug-linker
# B2: Humanized Anti-PSMA Antibody Variant 1 ADC, MMAF payload, Cleavable (Val-Citruline-PEG1) linker (antibody, human IgG1, kappa, V domains shown)
# VH: QVQLVQSGAEVKKPGASVKVSCKASGYTFTEYTIHWVRQAPGQRLEWMGNINPNNGGTTYNQKFEDRVTITRDTSASTAYMELSSLRSEDTAVYYCAAGWNFDYWGQGTTLTVSS
# VL: DIQLTQSPSFLSASVGDRVTITCKASQDVGTAVDWYQQKPGKAPKLLIYWASTRHTGVPSRFSGSGSGTEFTLTISSLQPEDFATYYCQQYNSYPLTFGGGTKVEIKR
# modifications: para-acetyl phenylalanine (pAF) at position A114 (Kabat numbering; first residue of the heavy chain constant region), conjugated to cleavable (Val-Citruline-PEG1) MMAF drug-linker
# B3: Humanized Anti-PSMA Antibody Variant 2 ADC, MMAF payload, Short Cleavable (Valine-Citruline-Acetyl) linker (antibody, human IgG1, kappa, V domains shown)
# VH: QVQLVQSGAEVKKPGASVKVSCKASGYTFTEYTIHWVRQAPGQRLEWMGNINPNNGGTTYNQKFEDRVTITRDTSASTAYMELSSLRSEDTAVYYCAAGWNFDYWGQGTTLTVSS
# VL: DIQLTQSPSFLSASVGDRVTITCKASQDVGTAVDWYQQKPGKAPKLLIYWASTRHTGVPSRFSGSGSGTEFTLTISSLQSEDFATYYCQQYNSYPLTFGGGTKVEIKR
# modifications: para-acetyl phenylalanine (pAF) at position A114 (Kabat numbering; first residue of the heavy chain constant region), conjugated to short cleavable (Valine-Citruline-Acetyl) MMAF drug-linker
# B4: Humanized Anti-PSMA Antibody Variant 2 ADC, MMAE payload, Non-Cleavable (PEG3) linker (antibody, human IgG1, kappa, V domains shown)
# VH: QVQLVQSGAEVKKPGASVKVSCKASGYTFTEYTIHWVRQAPGQRLEWMGNINPNNGGTTYNQKFEDRVTITRDTSASTAYMELSSLRSEDTAVYYCAAGWNFDYWGQGTTLTVSS
# VL: DIQLTQSPSFLSASVGDRVTITCKASQDVGTAVDWYQQKPGKAPKLLIYWASTRHTGVPSRFSGSGSGTEFTLTISSLQSEDFATYYCQQYNSYPLTFGGGTKVEIKR
# modifications: para-acetyl phenylalanine (pAF) at position A114 (Kabat numbering; first residue of the heavy chain constant region), conjugated to non-cleavable (PEG3) MMAE drug-linker
# B5: Humanized Anti-PSMA Antibody Variant 1 ADC, MMAF payload, Non-Cleavable (PEG3) linker (antibody, human IgG1, kappa, V domains shown)
# VH: QVQLVQSGAEVKKPGASVKVSCKASGYTFTEYTIHWVRQAPGQRLEWMGNINPNNGGTTYNQKFEDRVTITRDTSASTAYMELSSLRSEDTAVYYCAAGWNFDYWGQGTTLTVSS
# VL: DIQLTQSPSFLSASVGDRVTITCKASQDVGTAVDWYQQKPGKAPKLLIYWASTRHTGVPSRFSGSGSGTEFTLTISSLQPEDFATYYCQQYNSYPLTFGGGTKVEIKR
# modifications: para-acetyl phenylalanine (pAF) at position A114 (Kabat numbering; first residue of the heavy chain constant region), conjugated to non-cleavable (PEG3) MMAF drug-linker
# B6: Humanized Anti-PSMA Antibody Variant 2 ADC, MMAF payload, Cleavable (Val-Citruline-PEG1) linker (antibody, human IgG1, kappa, V domains shown)
# VH: QVQLVQSGAEVKKPGASVKVSCKASGYTFTEYTIHWVRQAPGQRLEWMGNINPNNGGTTYNQKFEDRVTITRDTSASTAYMELSSLRSEDTAVYYCAAGWNFDYWGQGTTLTVSS
# VL: DIQLTQSPSFLSASVGDRVTITCKASQDVGTAVDWYQQKPGKAPKLLIYWASTRHTGVPSRFSGSGSGTEFTLTISSLQSEDFATYYCQQYNSYPLTFGGGTKVEIKR
# modifications: para-acetyl phenylalanine (pAF) at position A114 (Kabat numbering; first residue of the heavy chain constant region), conjugated to cleavable (Val-Citruline-PEG1) MMAF drug-linker
# B7: Humanized Anti-PSMA Antibody Variant 2 ADC, MMAF payload, Non-Cleavable (PEG3) linker (antibody, human IgG1, kappa, V domains shown)
# VH: QVQLVQSGAEVKKPGASVKVSCKASGYTFTEYTIHWVRQAPGQRLEWMGNINPNNGGTTYNQKFEDRVTITRDTSASTAYMELSSLRSEDTAVYYCAAGWNFDYWGQGTTLTVSS
# VL: DIQLTQSPSFLSASVGDRVTITCKASQDVGTAVDWYQQKPGKAPKLLIYWASTRHTGVPSRFSGSGSGTEFTLTISSLQSEDFATYYCQQYNSYPLTFGGGTKVEIKR
# modifications: para-acetyl phenylalanine (pAF) at position A114 (Kabat numbering; first residue of the heavy chain constant region), conjugated to non-cleavable (PEG3) MMAF drug-linker
# B8: Humanized Anti-PSMA (full length) Variant 3 (antibody, human IgG1, kappa, V domains shown)
# VH: QVQLVQSGAEVKKPGASVKVSCKASGYTFTEYTIHWVRQAPGQRLEWMGNINPNNGGTTYNQKFEDRVTITRDTSASTAYMELSSLRSEDTAVYYCAAGWNFDYWGQGTTLTVSS
# VL: DIQLTQSPSFLSASVGDRVTITCKASQDVGTAVDWYQQKPGKAPKLLIYWASTRHTGVPDRFSGSGSGTEFTLTISSLQPEDFATYYCQQYNSYPLTFGGGTKVEIKR
# notes: Humanized J591 (CDR graft), full length; expressed transiently in HEK293 cells, supernatant tested by FACS on LnCap cells; also called humanized anti-PSMA variant 3
# B9: Humanized Anti-PSMA (full length) Variant 2 (antibody, human IgG1, kappa, V domains shown)
# VH: QVQLVQSGAEVKKPGASVKVSCKASGYTFTEYTIHWVRQAPGQRLEWMGNINPNNGGTTYNQKFEDRVTITRDTSASTAYMELSSLRSEDTAVYYCAAGWNFDYWGQGTTLTVSS
# VL: DIQLTQSPSFLSASVGDRVTITCKASQDVGTAVDWYQQKPGKAPKLLIYWASTRHTGVPSRFSGSGSGTEFTLTISSLQSEDFATYYCQQYNSYPLTFGGGTKVEIKR
# notes: Humanized J591 (CDR graft), full length; expressed transiently in HEK293 cells, supernatant tested by FACS on LnCap cells; also called humanized anti-PSMA variant 2; Humanized Anti-PSMA Antibody Variant 2
# Key:
# [1] = target: T1, prostate specific membrane antigen (PSMA) (UniProt Q04609 1-750, limits assumed); assay: cell-based or functional assay
# T1 sequence (Q04609 whole entry): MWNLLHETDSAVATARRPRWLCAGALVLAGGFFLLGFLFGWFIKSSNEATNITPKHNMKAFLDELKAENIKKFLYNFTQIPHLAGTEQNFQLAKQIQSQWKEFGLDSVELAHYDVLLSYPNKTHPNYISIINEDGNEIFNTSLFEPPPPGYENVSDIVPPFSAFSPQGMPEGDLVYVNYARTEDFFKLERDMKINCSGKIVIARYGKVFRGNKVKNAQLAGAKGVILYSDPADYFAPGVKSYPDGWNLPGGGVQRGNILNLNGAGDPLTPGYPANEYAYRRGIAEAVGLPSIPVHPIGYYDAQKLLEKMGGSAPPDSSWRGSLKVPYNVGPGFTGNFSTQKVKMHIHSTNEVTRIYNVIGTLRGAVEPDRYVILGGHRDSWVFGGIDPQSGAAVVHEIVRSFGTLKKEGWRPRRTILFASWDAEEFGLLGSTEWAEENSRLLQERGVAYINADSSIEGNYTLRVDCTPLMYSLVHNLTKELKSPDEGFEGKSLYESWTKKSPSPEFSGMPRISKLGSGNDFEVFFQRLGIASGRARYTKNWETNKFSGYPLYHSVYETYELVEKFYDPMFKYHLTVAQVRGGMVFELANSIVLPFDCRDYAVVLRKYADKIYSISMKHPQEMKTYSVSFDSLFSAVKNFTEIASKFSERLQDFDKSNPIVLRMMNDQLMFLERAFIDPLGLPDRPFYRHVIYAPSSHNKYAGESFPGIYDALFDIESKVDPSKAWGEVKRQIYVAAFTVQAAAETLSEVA
# [2] = target: T1, prostate specific membrane antigen …; assay: FACS, HEK293 supernatants on LnCap cells expressing PSMA
# Source text: Example 2: Antibody Humanization-Parental mouse J591 (Liu et al., Cancer Research, 57, […], 1997) antibody was humanized by selecting human frameworks based on sequence identity with the mouse framework sequence. The light chain and heavy chain CDRs from the mouse antibody were grafted onto the human frameworks, respectively, and analyzed for binding to PSMA antigen. Humanized variants were generated by pairing four human heavy chain frameworks with six light chain frameworks. The variants were expressed transiently in HEK293 cells and the supernatants were tested for binding to the PSMA antigen expressed in LnCap cells by FACS. Table 4 describes a selected heavy chain variable region sequence and 4 light chain variable region sequences used for further studies. […] ID Nos: 8 and the light chain sequence of SEQ. […] ID Nos: 10 and the light chain sequence of SEQ. […] ID Nos: 12 and the light chain sequence of SEQ. […] ID Nos: 14 and the light chain sequence of SEQ. ID Nos: 15.
Binder,"Cell Killing (%), C4-2 cell line [1]","IC50 (nM), in vitro cell killing in C4-2 cell line (Cell Titer Glo, 96 h) [1]",binding result [2]
B1,92%,0.064 nM,
B2,91%,0.066 nM,
B3,91%,0.053 nM,
B4,67%,12.5 nM,
B5,80.5%,0.543 nM,
B6,91%,0.051 nM,
B7,81%,0.503 nM,
B8,,,binds
B9,,,binds

# From patent US20240350835A1 (AMBRX, published 2024)
